In publication PMC7683346:

Target: FFAR4-NanoLuc (UniProt Q5NUL3)
Experiment: FRET or BRET

Chain of UniProt Q5NUL3 (Q5NUL3 whole entry): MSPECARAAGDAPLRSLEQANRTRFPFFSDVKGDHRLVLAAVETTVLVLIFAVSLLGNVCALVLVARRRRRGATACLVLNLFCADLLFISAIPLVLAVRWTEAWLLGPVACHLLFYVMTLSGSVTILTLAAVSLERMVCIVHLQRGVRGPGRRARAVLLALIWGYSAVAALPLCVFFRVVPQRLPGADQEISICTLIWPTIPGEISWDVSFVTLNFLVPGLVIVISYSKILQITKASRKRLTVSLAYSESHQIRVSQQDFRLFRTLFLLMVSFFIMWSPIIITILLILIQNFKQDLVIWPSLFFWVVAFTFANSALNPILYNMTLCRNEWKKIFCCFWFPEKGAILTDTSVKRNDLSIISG

| fold BRET signal against mini-Gαq [fold] | Substance |
| --- | --- |
| 3 | Venus-tagged mini-Gαo |
| 3 | Venus-tagged mini-Gαi |
